Laboratory results published in US20210364527A1 (QUANTUM SI, published 2021).
Read-outs that look alike come from different tables or passages of the source. Primed or numbered codes have the meaning given here. Ends that are not written are not given here. FITC′ = not defined here

B5: FITC-labeled RA peptide RAKLDEESILKQK-FITC (peptide)
peptide: RAKLDEESILKQK-{FITC′}
B6: RA peptide (N-terminal arginine, penultimate alanine; rest of sequence not given) (peptide)
peptide: RAKLDEESILKQK-{FITC′}
B7: IR peptide IRKLDEESILKQK (XXKLDEESILKQK, XX = IR) (peptide)
peptide: IRKLDEESILKQK
notes: Biolayer interferometry

Legend:
[1] = molecular target: B6; test: fluorescence polarization
[2] = molecular target: T1, KA peptide KAKLDEESILKQK (XAKLDEESILKQK, X = K); test: BLI heatmap, single-point screen
T1 construct: Biolayer interferometry single-point screen of UBR-box homologs
T1 peptide: KAKLDEESILKQK

[3] = molecular target: B5; test: fluorescence polarization titration with increasing concentration of UBR protein
[4] = molecular target: T2, LA peptide LAKLDEESILKQK (XAKLDEESILKQK, X = L); test: biolayer interferometry as in Example 12
T2 construct: Immobilized on the biolayer interferometry sensor
T2 peptide: LAKLDEESILKQK

[5] = molecular target: T3, IA peptide IAKLDEESILKQK (XAKLDEESILKQK, X = I); test: biolayer interferometry as in Example 12
T3 construct: Immobilized on the biolayer interferometry sensor
T3 peptide: IAKLDEESILKQK

[6] = molecular target: T4, VA peptide VAKLDEESILKQK (XAKLDEESILKQK, X = V); test: biolayer interferometry as in Example 12
T4 construct: Immobilized on the biolayer interferometry sensor
T4 peptide: VAKLDEESILKQK

[7] = molecular target: T5, F peptide FAKLDEESILKQK (XAKLDEESILKQK, X = F); test: biolayer interferometry as in Example 12
T5 construct: Immobilized on the biolayer interferometry sensor
T5 peptide: FAKLDEESILKQK

LI = molecular target: T6, LI; test: 3-binder dynamic sequencing of [..]; binder assigned by the binding preference in Table 1
T6 construct: also called LIFAGK
T6 chain: LIFAGK

IF = molecular target: T7, IF; test: as above
T7 construct: also called IFAGK
T7 chain: IFAGK

[8] = molecular target: B7; test: biolayer interferometry
[9] = molecular target: T8, IQ peptide IQKLDEESILKQK (XXKLDEESILKQK, XX = IQ); test: biolayer interferometry
T8 construct: Biolayer interferometry
T8 peptide: IQKLDEESILKQK

[10] = molecular target: T9, VR peptide VRKLDEESILKQK (XXKLDEESILKQK, XX = VR); test: biolayer interferometry
T9 construct: Biolayer interferometry
T9 peptide: VRKLDEESILKQK

[11] = molecular target: T10, FITC-labeled FA peptide FAKLDEESILKQK-FITC; test: fluorescence polarization, single point
T10 peptide: FAKLDEESILKQK-{FITC′}

[12] = molecular target: T11, FITC-labeled YA peptide YAKLDEESILKQK-FITC; test: fluorescence polarization, single point
T11 peptide: YAKLDEESILKQK-{FITC′}

[13] = molecular target: T12, FITC-labeled WA peptide WAKLDEESILKQK-FITC; test: fluorescence polarization, single point
T12 peptide: WAKLDEESILKQK-{FITC′}

[14] = molecular target: T2, LA peptide LAKLDEESILKQK …; test: biolayer interferometry as in Example 12
[15] = molecular target: T3, IA peptide IAKLDEESILKQK …; test: biolayer interferometry as in Example 12
[16] = molecular target: T4, VA peptide VAKLDEESILKQK …; test: biolayer interferometry as in Example 12
[17] = molecular target: T5, F peptide FAKLDEESILKQK (XAKLDEESILKQK, …); test: biolayer interferometry as in Example 12
[18] = molecular target: T13, Y peptide YAKLDEESILKQK (XAKLDEESILKQK, X = Y); test: biolayer interferometry, peptide immobilized on the sensor, 30 C
T13 construct: Immobilized on the biolayer interferometry sensor
T13 peptide: YAKLDEESILKQK

[19] = molecular target: T14, W peptide WAKLDEESILKQK (XAKLDEESILKQK, X = W); test: as above
T14 construct: Immobilized on the biolayer interferometry sensor
T14 peptide: WAKLDEESILKQK

[20] = molecular target: T15, FITC-labeled LA peptide LAKLDEESILKQK-FITC; test: fluorescence polarization, FITC-peptide with ClpS:streptavidin complex, 23 C
T15 peptide: LAKLDEESILKQK-{FITC′}

[21] = molecular target: T16, FITC-labeled IA peptide IAKLDEESILKQK-FITC; test: as above
T16 peptide: IAKLDEESILKQK-{FITC′}

[22] = molecular target: T17, FITC-labeled VA peptide VAKLDEESILKQK-FITC; test: as above
T17 peptide: VAKLDEESILKQK-{FITC′}

I (IAWLVK) = molecular target: T18, I (IAWLVK); test: dynamic sequencing of EFIAWLVK with PS610, PS372, hTET and pfuTET
T18 chain: IAWLVK

[23] = molecular target: T2, LA peptide LAKLDEESILKQK …; test: biolayer interferometry as in Example 12
[24] = molecular target: T3, IA peptide IAKLDEESILKQK …; test: biolayer interferometry as in Example 12
[25] = molecular target: T4, VA peptide VAKLDEESILKQK …; test: biolayer interferometry as in Example 12
[26] = molecular target: T5, F peptide FAKLDEESILKQK (XAKLDEESILKQK, …); test: biolayer interferometry as in Example 12
[27] = molecular target: T19, Kluyveromyces lactis UBR-box domain (PS528) (Kluyveromyces lactis, UniProt O60014 101-182); test: fluorescence polarization titration with increasing concentration of UBR protein
T19 construct: UBR-streptavidin complex in fluorescence polarization
T19 sequence: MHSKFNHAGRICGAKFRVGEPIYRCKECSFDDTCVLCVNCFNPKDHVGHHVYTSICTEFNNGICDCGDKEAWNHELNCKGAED

[28] = molecular target: T19, Kluyveromyces lactis UBR-box domain …; test: fluorescence polarization
[29] = molecular target: T20, ClpS from Thermosynochoccus elongatus (teClpS) (Thermosynechococcus elongatus, UniProt Q8DJY3 6-94); test: biolayer interferometry
T20 construct: Dye-labelled or streptavidin-complexed depending on the assay; also called Thermosynechococcus elongatus ClpS
T20 sequence: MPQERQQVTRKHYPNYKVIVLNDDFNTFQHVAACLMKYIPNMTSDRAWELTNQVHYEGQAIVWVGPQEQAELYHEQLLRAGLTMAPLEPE

[30] = molecular target: T21, RA peptide RAKLDEESILKQK (XAKLDEESILKQK, X = R); test: biolayer interferometry single-point screen, 30 C
T21 construct: Biolayer interferometry single-point screen of UBR-box homologs
T21 peptide: RAKLDEESILKQK

[31] = molecular target: T1, KA peptide KAKLDEESILKQK …; test: biolayer interferometry single-point screen, 30 C

B1: Kluyveromyces marxianus UBR1 (PS621) (other)
chain: MHSKFSHAGRICGAKFKVGEPIYRCKECSFDDTCVLCVNCFNPKDHTGHHVYTTICTEFNNGICDCGDKEAWNHTLFCKAEEG
notes: UBR-streptavidin complex in fluorescence polarization
Q: Which results are given for B1?
A: Kd [1]: 321 nM; binding result [2]: binds; Kd [3]: 420 nM

B2: Planctomycetia bacterium ClpS homolog (PS557) (other)
chain: MPTAASATESAIEDTPAPARPEVDGRTKPKRQPRYHVVLWNDDDHTYQYVVVMLQSLFGHPPERGYRLAKEVDTQGRVIVLTTTREHAELKRDQIHAFGYDRLLARSKGSMKASIEAEE
Q: Does B2 bind [4]?
A: binds

Q: Does B2 bind [5]?
A: binds

Q: Does B2 bind [6]?
A: binds

Q: Does B2 bind [7]?
A: no binding

Q: Does B2 bind (LI)?
A: binds

Q: Does B2 bind (IF)?
A: binds

B3: PS372 (ClpS homolog) (other)
chain: MAFPARGKTAPKNEVRRQPPYNVILLNDDDHTYRYVIEMLQKIFGFPPEKGFQIAEEVDRTGRVILLTTSKEHAELKQDQVHSYGPDPYLGRPCSGSMTCVIEPAV
notes: also called PS372-Bt; PS372-Bt-mPEG4
Q: Does B3 bind [8]?
A: binds

Q: Does B3 bind [9]?
A: binds

Q: Does B3 bind [10]?
A: no binding

Q: Does B3 bind [11]?
A: no binding

Q: Does B3 bind [12]?
A: no binding

Q: Does B3 bind [13]?
A: no binding

Q: Does B3 bind [14]?
A: binds

Q: Does B3 bind [15]?
A: binds

Q: Does B3 bind [16]?
A: binds

Q: Does B3 bind [17]?
A: no binding

Q: Does B3 bind [18]?
A: no binding

Q: Does B3 bind [19]?
A: no binding

Q: Does B3 bind [20]?
A: binds

Q: Does B3 bind [21]?
A: binds

Q: Does B3 bind [22]?
A: binds

Q: Does B3 bind (I (IAWLVK))?
A: binds

B4: PS558 (other)
chain: MTATTADPDRTTAEKTTKKARRSGQPKRQPRYHVILWNDNDHTYQYVVAMLQQLFGHPATTGLKLATEVDRTGRAVILTTTREHAELKRDQIHAFGADRLLARSKGAMSASIEPEAE
Q: Does B4 bind [23]?
A: binds

Q: Does B4 bind [24]?
A: binds

Q: Does B4 bind [25]?
A: binds

Q: Does B4 bind [26]?
A: no binding

Q: Which Kd [27] does the source give for B5 here?
A: 460 nM

Q: Which Kd [28] does the source give for B6 here?
A: 403 nM

Q: Does B7 bind [29]?
A: binds

B8: Vombatus ursinus UBR-box domain (PS522) (other)
chain: MLCGKVFKSGETTYSCRDCAIDPTCVLCMNCFQSSVHKNHRYKMHTSTGGGFCDCGDTEAWKTGPFCTIHEP
Q: Does B8 bind [30]?
A: binds

Q: Does B8 bind [31]?
A: binds
